Experimental data from US20190284293A1 (Bristol-Myers Squibb, published 2019).
Substitutions are numbered along the chain they refer to. In names and notes the source's numbering stands.

B1: CD73.6-IgG2-C219S-IgG1.1f (antibody)
heavy: QVQLVESGGGVVQPGRSLRLSCAASGFTFSNYGMHWVRQAPGKGLEWVAVILYDSSNKYYPDSVKGRFTISRDNSKNTLYLQMNSLRAEDTAVYYCARGGSSWYPDSFDIWGQGTMVTVSSASTKGPSVFPLAPCSRSTSESTAALGCLVKDYFPEPVTVSWNSGALTSGVHTFPAVLQSSGLYSLSSVVTVPSSNFGTQTYTCNVDHKPSNTKVDKTVERKSCVECPPCPAPPVAGPSVFLFPPKPKDTLMISRTPEVTCVVVDVSHEDPEVKFNWYVDGVEVHNAKTKPREEQYNSTYRVVSVLTVLHQDWLNGKEYKCKVSNKALPSSIEKTISKAKGQPREPQVYTLPPSREEMTKNQVSLTCLVKGFYPSDIAVEWESNGQPENNYKTTPPVLDSDGSFFLYSKLTVDKSRWQQGNVFSCSVMHEALHNHYTQKSLSLSPGK
light: not shown
notes: also called CD73.6-IgG2CS IgG1.1f; mAb-CD73.6-Vh-hHC-IgG2-C219S-IgG1.1f
B2: CD73.4-IgG2.3-plusTHT (antibody)
heavy: QVQLVESGGGVVQPGRSLRLSCAASGFTFSNYGMHWVRQAPGKGLEWVAVILYDGSNKYYPDSVKGRFTISRDNSKNTLYLQMNSLRAEDTAVYYCARGGSSWYPDSFDIWGQGTMVTVSSASTKGPSVFPLAPCSRSTSESTAALGCLVKDYFPEPVTVSWNSGALTSGVHTFPAVLQSSGLYSLSSVVTVPSSNFGTQTYTCNVDHKPSNTKVDKTVERKSCVETHTCPPCPAPPVAGPSVFLFPPKPKDTLMISRTPEVTCVVVDVSHEDPEVQFNWYVDGVEVHNAKTKPREEQFNSTFRVVSVLTVVHQDWLNGKEYKCKVSNKGLPAPIEKTISKTKGQPREPQVYTLPPSREEMTKNQVSLTCLVKGFYPSDIAVEWESNGQPENNYKTTPPMLDSDGSFFLYSKLTVDKSRWQQGNVFSCSVMHEALHNHYTQKSLSLSPGK
light: not shown
B3: CD73.4-IgG2.5-plusTHT (antibody)
heavy: B2 heavy with C135S, S223C
light: not shown
B4: CD73.4-IgG2.3-plusGGG (antibody)
heavy: B2 heavy with T227G, H228G, T229G
light: not shown
B5: CD73.4-IgG2.5G1-KH (antibody)
heavy: B1 heavy with S55G, C135S, S223C, S330A, S331P
light: not shown
B6: CD73.4-IgG2.5G1.1f-KH (antibody)
heavy: B1 heavy with S55G, C135S, S223C
light: not shown
B7: CD73.4-IgG2.3G1-KH (antibody)
heavy: B1 heavy with S55G, S330A, S331P
light: not shown
B8: CD73.4-IgG2.5 (antibody)
heavy: QVQLVESGGGVVQPGRSLRLSCAASGFTFSNYGMHWVRQAPGKGLEWVAVILYDGSNKYYPDSVKGRFTISRDNSKNTLYLQMNSLRAEDTAVYYCARGGSSWYPDSFDIWGQGTMVTVSSASTKGPSVFPLAPSSRSTSESTAALGCLVKDYFPEPVTVSWNSGALTSGVHTFPAVLQSSGLYSLSSVVTVPSSNFGTQTYTCNVDHKPSNTKVDKTVERKCCVECPPCPAPPVAGPSVFLFPPKPKDTLMISRTPEVTCVVVDVSHEDPEVQFNWYVDGVEVHNAKTKPREEQFNSTFRVVSVLTVVHQDWLNGKEYKCKVSNKGLPAPIEKTISKTKGQPREPQVYTLPPSREEMTKNQVSLTCLVKGFYPSDIAVEWESNGQPENNYKTTPPMLDSDGSFFLYSKLTVDKSRWQQGNVFSCSVMHEALHNHYTQKSLSLSPGK
light: not shown

Target: T1, N-hCD73-his (N-terminal domain of human CD73, residues 26-336, His tag) (human, UniProt P21589 26-336)
T1 sequence: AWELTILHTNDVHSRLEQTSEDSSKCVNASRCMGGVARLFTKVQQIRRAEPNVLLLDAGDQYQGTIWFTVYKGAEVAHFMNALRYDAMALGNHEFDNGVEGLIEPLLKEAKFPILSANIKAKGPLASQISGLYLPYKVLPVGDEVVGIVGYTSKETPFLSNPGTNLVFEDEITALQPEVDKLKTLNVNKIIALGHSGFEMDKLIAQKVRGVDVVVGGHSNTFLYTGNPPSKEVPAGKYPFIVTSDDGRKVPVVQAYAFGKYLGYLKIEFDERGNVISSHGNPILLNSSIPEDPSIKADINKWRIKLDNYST
Assay: SPR, mAb captured on protein A
Method: For these experiments, protein A (Pierce) was immobilized to a density of 3000-4000 RU on flow cells 1-4 of a CM5 sensor chip (GE Healthcare) using standard ethyl(dimethylaminopropyl) carbodiimide (EDC)/N-hydroxysuccinimide […] chemistry, with ethanolamine blocking, in a running buffer of 0.01 M HEPES pH 7.4, 0.15 M NaCl, 3 mM EDTA, 0.005% v/v tween 20. […] The running buffer for the kinetic experiments was 10 mM sodium phosphate, 130 mM sodium chloride, 0.05% tween 20, pH 7.1. The surfaces were regenerated after each cycle using two 30 s pulses of 10 mM glycine pH 1.5 at a flow rate of 30 μl/min. Sensogram data was double-referenced and then fitted to a 1:1 Langmuir model using Biacore T100 evaluation software v2.0.4, to determine the association rate constant (ka), the dissociation rate constant (kd), and the equilibrium dissociation constant (KD).

Work on B1 yielded a Kd of 0.72 nM.

Binder B1 has a koff of 0.00022 s⁻¹.

For B1, the kon was 300000 M⁻¹ s⁻¹.

Target: T2, human CD73 on cells (human, UniProt P21589 27-549)
T2 sequence: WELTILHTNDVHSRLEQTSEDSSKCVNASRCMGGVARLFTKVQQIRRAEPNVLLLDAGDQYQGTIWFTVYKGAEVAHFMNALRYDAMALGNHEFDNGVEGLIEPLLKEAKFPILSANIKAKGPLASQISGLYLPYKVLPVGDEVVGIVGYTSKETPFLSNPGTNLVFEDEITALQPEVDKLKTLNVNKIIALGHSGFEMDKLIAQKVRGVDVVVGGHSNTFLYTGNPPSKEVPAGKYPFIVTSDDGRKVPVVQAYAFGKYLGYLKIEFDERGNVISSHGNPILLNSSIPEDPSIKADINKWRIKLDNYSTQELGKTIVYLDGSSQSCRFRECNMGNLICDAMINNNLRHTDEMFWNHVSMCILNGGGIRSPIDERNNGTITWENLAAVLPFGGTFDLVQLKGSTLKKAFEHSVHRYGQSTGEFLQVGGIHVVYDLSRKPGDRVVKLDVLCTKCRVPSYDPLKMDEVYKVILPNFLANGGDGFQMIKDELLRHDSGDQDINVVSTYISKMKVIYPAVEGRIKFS
Assay: cell-based or functional assay

First: B2
Second: B3
The “CD73 Inhibition S:B (inhibition versus background)” value of the first is lower: 33 for the first, 44 for the second.

First: B5
Second: B6
The “CD73 Inhibition S:B (inhibition versus background)” value of the first is lower: 42 for the first, 45 for the second.

Going from B7 to B8, the “CD73 Inhibition S:B (inhibition versus background)” value falls from 52 to 51.

B3 and B4 are within 1.5-fold of each other in “CD73 Inhibition EC50 (nM), cAMP assay, Calu6” value (from here on “CD73 Inhibition EC50 (nM)”): 0.9 nM for the first, 1.26 nM for the second.

Compared with B5, B6 is 2-fold higher in “CD73 Inhibition EC50 (nM)” value: 0.44 nM for the first, 0.87 nM for the second.

B7 and B8 are within 1.5-fold of each other in “CD73 Inhibition EC50 (nM)” value: 1.7 nM for the first, 2.17 nM for the second.
